Test results published in patent publication US8119594B1, “Method of modulating integrin mediated cellular activity and agents useful for same” (Inter-K Pty Limited, priority 1999, dated 2012).
Each block holds one compound with its values, some of them ahead of it. Where a SMILES comes first, the peptide text is derived from it. Where no end group is shown, it is not given here. The star is where a group is joined. Biotin = O=C1N[C@H]2[C@H](CS[C@H]2CCCCC(=O)*)N1

Experiments:
[1] = system: p42/p44 MAP kinase activity in WiDr cells; test: MAP kinase assay in WiDr cells after serum stimulation; type: cell-based, human; conditions: WiDr wild-type; inhibitor 40 μM added one hour before serum
Protocol: (§1) Cultures of WiDr and HT29 mock and antisense β6 transfectants were established by seeding 1×10^6 cells/5 ml of culture medium in 25 cm^2 tissue culture flasks. Cells were incubated at 37° C. in humidified CO2 for 24 hours before serum starvation in serum-free medium for the next 16 hours. Foetal calf serum was then added to a final concentration of 10% for 30 mins before MAP kinase assays were performed. […] The ability of cells to transfer phosphate from [γ^32P]-ATP to a synthetic peptide that contains specifically a p42/p44 MAP kinase phosphorylation site was measured as described in the manufacturer's instructions. [^32P]-labelled peptides were spotted onto PE1-cellulose paper, unbound radioactivity was washed with 75 mM phosphoric acid and bound [^32P]-labelled peptides were measured by liquid scintillation counting. Protein estimation was performed on each cell lysate used and enzyme activity calculated as described in the manufacturer's instructions. […]
(§2) The effect of MEK (MAP kinase kinase) inhibitors U0126 and PD98059 on MAP kinase activity in WiDr and HT29 wild-type cells was tested in the absence/presence of serum. […] Serum was then added for 30 min and MAP kinase activity assessed before and after addition of serum. […]

[2] = system: p42/p44 MAP kinase activity in HT29 cells; test: MAP kinase assay in HT29 cells after serum stimulation; type: cell-based, human; conditions: HT29 wild-type; inhibitor 40 μM added one hour before serum
Protocol: as §1, §2

[3] = system: gelatinase B secretion by SW480 β6 transfectants; test: Gelatinase B secretion by gelatin zymogram; type: cell-based, human; conditions: 40 μM; 48 hours; serum-free; compared with controls
Protocol: SW480 β6 transfectants were cultured under serum-free conditions for 48 hours in the absence/presence of the MEK inhibitor PD98059 (40 μM) or DMSO (vehicle control). Tumour-conditioned medium was assayed for gelatinase B by analysis of equal protein loads in a gelatin zymogram.

[4] = system: HT29 colon cancer cells; test: WST-1 cell proliferation assay in HT29 cells; type: cell-based, human; conditions: 10 μm, 24 hours, serum-free medium, FIG. 28
Protocol: HT29 and SW480 β6-expressing colon cancer cell lines were seeded into wells of 96-well microtitre plates (Nunclon) in Dulbecco's Modified Eagle's Medium (DMEM) supplemented with 10% foetal bovine serum, glutamine, Hepes, and antibiotics. […] The cell proliferation reagent WST-1 is designed to be used for the non-radioactive, spectrophotometric quantification of cell growth and viability in proliferation and chemosensitivity assays. […]
In particular, at the termination of experiments, 30 μl of WST-1 was added to 270 μl culture medium volume in each microtitre well and the colour change quantitated in an ELISA plate reader by measuring absorbance of the formazan product at 450 nm (using a reference wavelength of more than 600 nm). The mean absorbance readings from triplicate wells (±standard error of the means) after subtraction of background control wells (culture medium without cells) was determined.

[5] = system: SW480 β6-expressing colon cancer cells; conditions: for inhibition of cell proliferation (WST-1): SW480 β6-expressing, 30 μm, 24 hours, serum-free medium, FIG. 29
Protocol: HT29 and SW480 β6-expressing colon cancer cell lines were seeded into wells of 96-well microtitre plates (Nunclon) in Dulbecco's Modified Eagle's Medium (DMEM) supplemented with 10% foetal bovine serum, glutamine, Hepes, and antibiotics. Seeding cell densities were 3×10^3 cells per triplicate well for each condition tested and after 24 hours incubation of cell cultures in 5% CO2, 100% humidity at 37° C., the culture medium was exchanged for serum-free DMEM medium supplemented with insulin, transferrin, selenous acid, hydrocortisone, non-essential amino acids, glutamine, Hepes and antibiotics containing either peptide [sequence] (SEQ ID NO. 2) alone or penetratin-peptide complex at a concentration of 10 μm for HT29 cells or 30 μm for SW480 β6-expressing cells. Cell cultures were incubated for a further 24 hours following which cultures were photographed (Kodak Techpan Film at 100 ASA setting) and the experiments terminated by addition of the cell proliferation reagent WST-1 (Boehringer Mannheim) to monitor effects of the peptide on cell growth.
SW480 mock and SW480 β6 transfectants were cultured in DMEM medium supplemented with 1% foetal bovine serum in the presence of 20 μM seq. […] Percentage inhibition was assessed by the WST-1 colorimetric dehydrogenase assay described in Example 6.
Growth inhibition of SW480 cells expressing full length wild-type β6 exposed to seq.4 coupled to penetratin or [sequence] (SEQ ID NO. 2) peptide coupled to penetratin (5, 10, 20, 30 μM in DMEM minus foetal bovine serum) but which peptide contained alanine substitutions at the four positions indicated was assessed.

[6] = biological target: T1, ERK2 (Mus musculus, UniProt P63085); test: ELISA binding of ERK2 to biotinylated integrin cytoplasmic domain peptides; conditions: for binding of ERK2 to integrin β subunit cytoplasmic domain peptides: corrected for non-specific binding, FIG. 34; for binding of ERK2 (thrombin cleaved): ERK2 cleaved from GST-ERK2 by thrombin, compared to seq. 4, FIG. 23; for binding of GST.ERK2 to shorter test peptides: range of peptide concentrations, seq. 4 compared to fragment 2, seq. 3 compared to seq. 4, FIG. 20; for binding of non-phosphorylated ERK2: over a range of concentrations of ERK2, compared to fragments 1, 3 and 4, FIG. 18
T1 construct: made in house
T1 sequence (P63085 whole entry, the tested form may be a part): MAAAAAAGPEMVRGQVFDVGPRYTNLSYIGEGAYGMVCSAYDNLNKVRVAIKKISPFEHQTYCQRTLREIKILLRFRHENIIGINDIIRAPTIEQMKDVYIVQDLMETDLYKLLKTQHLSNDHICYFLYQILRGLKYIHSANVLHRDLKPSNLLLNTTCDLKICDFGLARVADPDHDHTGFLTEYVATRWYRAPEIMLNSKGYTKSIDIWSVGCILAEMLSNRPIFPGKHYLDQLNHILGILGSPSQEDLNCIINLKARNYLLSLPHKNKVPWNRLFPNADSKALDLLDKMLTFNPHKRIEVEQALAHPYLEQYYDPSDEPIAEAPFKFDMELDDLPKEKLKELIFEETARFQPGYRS
Protocol: Peptide fragments corresponding to regions of the cytoplasmic tail domain of the β6 subunit were screened in an enzyme-linked immunosorbent assay (ELISA) for binding with ERK2. The […] β6 cytoplasmic tail is shown in FIG. 16 as are the amino acid sequences for the cytoplasmic domains of the β1 to β3 subunits. In particular, four synthetic peptides designated fragment 1 to fragment 4 were prepared and biotinylated at the N-terminal end of each, respectively (Auspep Pty Ltd, Melbourne Australia).
(§3) Overlapping biotinylated fragments 1 to 4 were coated onto streptavidin coated polystyrene plates (Pierce, Rockford Ill. USA, Cat No. 15125) and the ELISA performed substantially according to manufacturers instructions. Briefly, wells are washed with 3×200 μl of wash buffer (TBS, 0.1% BSA, 0.05% Tween 20 or SuperBlock™ blocking buffer in TBS, Pierce, Prod. No. 37535) prior to addition of biotinylated peptides (100 μl) and incubation for 1 hr at room temperature to allow for capture of the peptides on the plate. Following another washing step, peptides were overlayed with GST-ERK, ERK (or JNK-1) alone at a volume of 100 μl per well, and the plates incubated for a further 1 hr at room temperature before removal of any unbound ERK by further washing.
Binding of ERK to the peptides is detected using 100 μl anti-ERK1/2 mAb SC1647 (Santa Cruz) as the primary antibody at a dilution of 1:700 (isotype matched antibody IgG2b is used as a control). This is followed by another washing step and addition of 100 μl rabbit anti-mouse antibody (Biorad) conjugated to alkaline phosphatase at a concentration of 1:1000 for 30 minutes again at room temperature. A 100 μl aliquot of detection reagent (alkaline phosphatase detection kit-Biorad) is then introduced into each well after a final washing step and allowed to react for 15-30 minutes at room temperature in the dark before absorbance is measured at 405 nm. All dilutions of peptides, MAP kinase and antibodies were performed using the wash buffer. GST-ERK is a fusion protein consisting of ERK coupled to glutathione-S-transferase and purified from host cells transfected with pGEX vector.

[7] = biological target: T2, JNK-1 (Homo sapiens, UniProt P45983); test: ELISA binding of JNK-1 to β6 cytoplasmic tail peptide; conditions: JNK-1 0.05-1.5 μm/100 μl; increasing peptide concentrations; FIG. 24
T2 construct: purchased Santa Cruz
T2 sequence (P45983 whole entry, species assumed): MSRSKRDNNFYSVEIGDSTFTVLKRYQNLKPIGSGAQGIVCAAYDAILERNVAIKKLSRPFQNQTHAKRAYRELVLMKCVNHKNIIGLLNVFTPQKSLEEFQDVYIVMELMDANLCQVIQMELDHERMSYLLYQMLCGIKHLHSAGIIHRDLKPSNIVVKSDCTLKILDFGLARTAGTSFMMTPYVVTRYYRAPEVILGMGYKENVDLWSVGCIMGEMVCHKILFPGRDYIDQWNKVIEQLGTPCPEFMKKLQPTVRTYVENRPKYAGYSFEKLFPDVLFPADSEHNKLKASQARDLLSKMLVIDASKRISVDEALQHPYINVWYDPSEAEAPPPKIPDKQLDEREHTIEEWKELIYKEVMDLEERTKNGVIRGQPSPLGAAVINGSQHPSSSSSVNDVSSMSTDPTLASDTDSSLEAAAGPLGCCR
Protocol: as §3
Briefly, 0.05-1.5 μm/100 μl of JNK-1 (Santa Cruz) was aliquoted into wells of a 96 well culture place containing increasing concentrations of the β6 cytoplasmic domain tail peptide used in Example 3. For comparison purposes, non-phosphorylated GST-ERK2 (0.05-1.5 μm/100 μl) was aliquoted into wells containing β6 cytoplasmic tail peptide or peptide fragments 1 or 2, respectively. Binding of JNK-1 was detected using mouse anti-JNK-1 mAb SC 474-G (Santa Cruz) and HRP-conjugated goat anti-mouse antibody.

binding of ERK2 to integrin β subunit cytoplasmic domain peptides [6]: also found
Compound: RARAKWDTANNPLYK (HOMO SAPIENS) [β3, peptide corresponding to a region of the β3 cytoplasmic domain]

binding of GST.ERK2 to shorter test peptides [6]: substantially less
Compound: RSKAKWQTGT (HOMO SAPIENS) [seq. 3, 10 mer test peptide from the β6 cytoplasmic tail]

binding of ERK2 to integrin β subunit cytoplasmic domain peptides [6]: significant binding
binding of GST.ERK2 to shorter test peptides [6]: no reduction in binding
Compound: RSKAKWQTGTNPLYR (HOMO SAPIENS) [seq. 4]
inhibition of cell proliferation (WST-1) [4]: Only the carrier penetratin-peptide complex was effective
inhibition of cell proliferation (WST-1) [5]: Only the carrier penetratin-peptide complex was effective

binding of non-phosphorylated GST.ERK2 to peptide fragment ([6]; GST.ERK2 0.25 μg/100 μl, peptide 1 μg/100 μl, FIG. 17): significant binding
binding of non-phosphorylated ERK2 [6]: Significant binding
Compound: RSKAKWQTGTNPLYRGSTST (Biotin-RSKAKWQTGTNPLYRGSTST) [fragment 2, N-terminally biotinylated synthetic peptide of the β6 cytoplasmic tail]

binding of ERK2 to integrin β subunit cytoplasmic domain peptides [6]: also found
Compound: RSRARYEMASNPLYR (HOMO SAPIENS) [β5, peptide corresponding to a region of the β5 cytoplasmic domain]

binding of non-phosphorylated ERK2 [6]: Significant binding
binding of JNK-1 [7]: Significant binding
Compound: β6 cytoplasmic tail peptide: peptide of the cytoplasmic tail domain of the integrin β6 subunit (HDRKEVAKFEAERSKAKWQTGTNPLYRGSTSTFKNVTYKHREKQKVDLSTDS; HOMO SAPIENS)

The next lines start with the compound.

Compound: COc1cccc(-c2cc(=O)c3ccccc3o2)c1N [PD98059]
serum-stimulated MAP kinase activity [1]: inhibitable
serum-stimulated MAP kinase activity [2]: inhibitable
gelatinase B secretion [3]: reduced gelatinase B secretion

Compound: N#CC(=C(/N)Sc1ccccc1N)/C(C#N)=C(\N)Sc1ccccc1N [U0126]
serum-stimulated MAP kinase activity [1]: inhibitable
serum-stimulated MAP kinase activity [2]: inhibitable

Compound: CC[C@H](C)[C@H](NC(=O)[C@H](CCCCN)NC(=O)[C@@H](NC(=O)[C@H](CCC(N)=O)NC(=O)[C@@H](N)CCCNC(=N)N)[C@@H](C)CC)C(=O)N[C@@H](Cc1c[nH]c2ccccc12)C(=O)N[C@@H](Cc1ccccc1)C(=O)N[C@@H](CCC(N)=O)C(=O)N[C@@H](CC(N)=O)C(=O)N[C@@H](CCCNC(=N)N)C(=O)N[C@@H](CCCNC(=N)N)C(=O)N[C@@H](CCSC)C(=O)N[C@@H](CCCCN)C(=O)N[C@@H](Cc1c[nH]c2ccccc12)C(=O)N[C@@H](CCCCN)C(=O)N[C@@H](CCCCN)C(=O)N[C@@H](CCCNC(=N)N)C(=O)N[C@@H](CO)C(=O)N[C@@H](CCCCN)C(=O)N[C@@H](C)C(=O)N[C@@H](CCCCN)C(=O)N[C@@H](Cc1c[nH]c2ccccc12)C(=O)N[C@@H](CCC(N)=O)C(=O)N[C@H](C(=O)NCC(=O)N[C@H](C(=O)N[C@@H](CC(N)=O)C(=O)N1CCC[C@H]1C(=O)N[C@@H](CC(C)C)C(=O)N[C@@H](Cc1ccc(O)cc1)C(=O)N[C@@H](CCCNC(=N)N)C(=O)O)[C@@H](C)O)[C@@H](C)O [penetratin-peptide complex] (H-RQIKIWFQNRRMKWKKRSKAKWQTGTNPLYR-OH; N-terminus and C-terminus assumed)
inhibition of cell proliferation (WST-1) [4]: effective in inhibiting cell proliferation
growth inhibition, dose response ([5]; SW480 full length wild-type β6, 5, 10, 20, 30 μM in DMEM minus foetal bovine serum, FIG. 33): progressive inhibition of proliferation in a dose-response manner
inhibition of cell proliferation (WST-1) [5]: effective in inhibiting cell proliferation

Compound: RSKAK (HOMO SAPIENS) [5 mer peptide]
binding of ERK2 (thrombin cleaved) [6]: Negligible binding

Compound: RSKAKNPLYR (HOMO SAPIENS) [10(4), 4 is omitted]
binding of ERK2 (thrombin cleaved) [6]: Comparable binding
